Results from paper PMC9276737.

Assays:
Details in all cases: 2 nM 32P-labelled DNA; binding buffer, salt, pH and temperature only by reference (refs 50, 51); native 6% polyacrylamide gel for EMSA
[1] = biological target: T1, PclR-His (Streptococcus pneumoniae R6) (UniProt Q8DP24); assay: DNase I footprinting
T1 sequence: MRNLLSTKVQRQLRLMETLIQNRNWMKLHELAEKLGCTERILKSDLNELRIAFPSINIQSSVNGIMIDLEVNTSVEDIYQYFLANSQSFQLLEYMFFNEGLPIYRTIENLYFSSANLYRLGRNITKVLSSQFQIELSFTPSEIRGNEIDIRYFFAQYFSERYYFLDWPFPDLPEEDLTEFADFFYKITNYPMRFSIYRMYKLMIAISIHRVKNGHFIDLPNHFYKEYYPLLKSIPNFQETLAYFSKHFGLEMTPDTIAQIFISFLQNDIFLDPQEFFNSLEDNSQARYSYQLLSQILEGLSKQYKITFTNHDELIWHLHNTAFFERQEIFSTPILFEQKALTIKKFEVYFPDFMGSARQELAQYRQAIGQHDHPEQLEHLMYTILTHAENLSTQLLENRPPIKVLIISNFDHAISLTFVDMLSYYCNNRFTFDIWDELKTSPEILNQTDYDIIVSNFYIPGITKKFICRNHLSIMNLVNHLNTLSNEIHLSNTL

[2] = biological target: T2, MgaSpn-His (Streptococcus pneumoniae R6) (UniProt Q8DNN5); assay: DNase I footprinting
T2 sequence: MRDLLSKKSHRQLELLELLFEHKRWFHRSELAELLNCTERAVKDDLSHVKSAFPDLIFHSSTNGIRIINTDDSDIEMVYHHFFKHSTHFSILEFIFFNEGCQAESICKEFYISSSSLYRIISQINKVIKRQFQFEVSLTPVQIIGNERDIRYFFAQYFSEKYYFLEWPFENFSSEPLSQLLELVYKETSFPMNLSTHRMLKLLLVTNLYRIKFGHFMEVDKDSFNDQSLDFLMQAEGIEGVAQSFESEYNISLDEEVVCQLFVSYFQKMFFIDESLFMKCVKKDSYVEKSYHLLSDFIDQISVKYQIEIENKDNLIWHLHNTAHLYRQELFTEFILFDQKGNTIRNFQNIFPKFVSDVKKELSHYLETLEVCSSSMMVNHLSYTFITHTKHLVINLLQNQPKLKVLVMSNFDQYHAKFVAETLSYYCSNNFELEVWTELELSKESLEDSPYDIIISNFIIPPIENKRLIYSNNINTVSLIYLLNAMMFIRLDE

[3] = biological target: T1, PclR-His (Streptococcus pneumoniae R6); assay: EMSA
[4] = biological target: T2, MgaSpn-His (Streptococcus pneumoniae R6); assay: EMSA

Sequence | binding [1] | binding [2] | binding [3] | binding [4]
CAAATTCTTTAATTGTTGCTATTATATAATTTTTAAAATTAAAAATATAATCTTTAGACTTGAATTTGATTCTGTATTCACGCCCTCAATAGACGGTAAAATAAGAAAATTGTTTATATATTGTCTCCGTAGTGTTATTATACGAAATAAAAGATTTTAGGAAAAGTCGTTATATCATGCTATACCTATTCTTTGTGGTATAATTGCAAGAGGTTTAATCCG (double strand) [222-bp P1623B promoter fragment] | no binding | – | – | –
CGGCTAGTTCATGTAATTTCATCCAATTACGATTCTGAATTAGGGTTTCCATTAAGCGTAATTGTCTTTGAACTTTTGTGGATAAAAGGTTTCTCATACGGGTATTTCCTCCATAATTCATTATATCTTTTTTTGTCTAAGTAGTATAAAAAAATTAGAGCAAGAAAATTGTCGTTAGTAATCGGAAAAATTAGAATAATATAAGTGGCTTTTAAGTGCAAAAACAGAATATATTAATTGTTCAGAAAATATTGATTAATGCCTCAAATAGTTGTACATTG (double strand) [281-bp PpclA promoter fragment] | binds | binds | – | –
CTCCTAGATAGTATTTTATAGTTTACAATGTACAACTATTTGAGGCATTAATCAATATTTTCTGAACAATTAATATATTCTGTTTTTGCACTTAAAAGCCACTTATATTATTCTAATTTTTCCGATTACTAACGACAATTTTCTTGCTCTAATTTTTTTATACTACTTAGACAAAAAAAGATATAATGAATTATGGAGGAAATACCCGTATGAGAAACCTTTTATCCACAAAAGTTCAAAGACAATTACGCTTAATGGAAACCCTAATTC (double strand) [270-bp PpclA promoter fragment] | binds | binds | binds | binds
